This note sets out measurements from patent US20260274993A1 (HUMMINGBIRD BIOSCIENCE PTE, published 2026).

For orientation: EC50 means the concentration at which the effect is half-maximal.

Experiment [1] deals with T1, 3A6.
T1 construct: also called 3A6 antibody (containing VH4-34 antigen); 3A6 (VH4-34 antigen)
In words: flow cytometry, EC50 of % parent (FITC), CHO cells overexpressing surface 3A6. Background: A flow cytometer gives signals particle by particle.
Experimental: (§1) FACS was performed according to standard protocols. Briefly, cells were assayed in PBS with 0.5% BSA and 2 mM EDTA. […] Following this, cells were incubated with a secondary anti-mouse FITC antibody for 30 mins at 4° C. FITC readout was measured by FACS on a benchtop flow cytometer.

For experiment [2], the target named is tabalumab. In words: flow cytometry, EC50 of % parent (FITC), CHO cells overexpressing surface tabalumab (TABA).
Sequence of tabalumab (VH, as listed by the source, chain 1 of 2): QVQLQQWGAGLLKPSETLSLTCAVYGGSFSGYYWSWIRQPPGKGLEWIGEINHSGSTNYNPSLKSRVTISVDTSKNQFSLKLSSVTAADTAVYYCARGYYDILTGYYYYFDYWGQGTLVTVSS
Sequence of tabalumab (VL, as listed by the source, chain 2 of 2): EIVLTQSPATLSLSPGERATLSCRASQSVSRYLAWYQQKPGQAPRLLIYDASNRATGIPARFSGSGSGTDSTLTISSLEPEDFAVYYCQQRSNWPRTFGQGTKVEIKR
Experimental: as §1
Experiment [3] deals with T2, zanolimumab.
T2 construct: VH4-34-containing antibody used as the antigen, overexpressed on the surface of CHO cells; also called Zano.hIgG1
T2 sequence (VH, as listed by the source, chain 1 of 2): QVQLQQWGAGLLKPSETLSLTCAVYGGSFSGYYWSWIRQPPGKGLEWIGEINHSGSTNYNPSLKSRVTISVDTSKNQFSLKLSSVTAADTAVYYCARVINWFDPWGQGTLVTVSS
T2 sequence (VL, as listed by the source, chain 2 of 2): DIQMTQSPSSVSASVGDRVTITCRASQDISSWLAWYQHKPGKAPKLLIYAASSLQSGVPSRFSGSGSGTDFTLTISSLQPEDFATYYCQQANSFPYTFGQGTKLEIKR
The experiment can be described thus: flow cytometry, EC50 of % parent (FITC), CHO cells overexpressing surface zanolimumab (ZANO).
Experimental: as §1

The target in experiment [4] is T3, 3A6 mutant FR1.
T3 construct: also called 3A6 FR1; 3A6-FR1 (VH4-34 FR1 mutant)
T3 sequence (VH, as listed by the source, chain 1 of 2): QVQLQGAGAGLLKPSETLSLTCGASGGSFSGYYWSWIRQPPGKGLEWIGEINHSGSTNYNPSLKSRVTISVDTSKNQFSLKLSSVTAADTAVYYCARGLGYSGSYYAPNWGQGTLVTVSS
T3 sequence (VL, as listed by the source, chain 2 of 2): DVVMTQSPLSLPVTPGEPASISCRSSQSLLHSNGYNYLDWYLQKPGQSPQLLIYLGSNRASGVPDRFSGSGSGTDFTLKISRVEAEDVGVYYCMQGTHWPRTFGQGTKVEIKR
In words: flow cytometry, EC50 of % parent (FITC), CHO cells expressing 3A6 mutant FR1 (3A6 FR1); curve in FIG. 2A reaches about 95 % parent.
Experimental: as §1

Experiment [5] addresses T4, antibodies containing VH4-34 endogenously expressed by cell line OCI-Ly3.
T4 construct: Whole, on cells; also called VH4-34-expressing cell line OCI-Ly3
The experiment can be described thus: flow cytometry, EC50 of % parent (PE), OCI-Ly3 cells endogenously expressing VH4-34; curve in FIG. 4A reaches only about 40 % parent.
Experimental: FACS was performed according to standard protocols. Briefly, cells were assayed in PBS with 0.5% BSA and 2 mM EDTA. Live dead staining was performed with a live dead cell dye for 15 minutes at 4° C. […] Following this, cells were incubated with a secondary PE goat anti-mouse IgG for 30 mins at 4° C. and PE readout was measured.

Experiment [6] deals with T5, Zanolimumab mutant FR1.
T5 construct: also called Zano FR1
T5 sequence (VH, as listed by the source, chain 1 of 2): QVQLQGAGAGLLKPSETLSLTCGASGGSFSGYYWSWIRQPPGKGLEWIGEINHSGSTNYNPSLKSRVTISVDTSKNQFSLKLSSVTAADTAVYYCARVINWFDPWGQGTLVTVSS
In words: flow cytometry, EC50 of % parent (FITC), CHO cells expressing zanolimumab mutant FR1 (ZANO FR1); curve in FIG. 2A reaches about 95 % parent.
Experimental: as §1

Experiment [7] deals with T6, Tabalumab mutant FR1.
T6 construct: also called Taba FR1
T6 sequence (VH, as listed by the source, chain 1 of 2): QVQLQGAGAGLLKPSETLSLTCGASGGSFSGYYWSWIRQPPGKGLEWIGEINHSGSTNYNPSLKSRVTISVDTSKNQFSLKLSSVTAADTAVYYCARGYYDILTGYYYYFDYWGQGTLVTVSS
In words: flow cytometry, EC50 of % parent (FITC), CHO cells expressing tabalumab mutant FR1 (TABA FR1); curve in FIG. 2A levels at only about 15 % parent.
Experimental: as §1

Experiment [8] concerns the target tabalumab. In words: cell-based or functional assay.
Experiment [9] deals with T2, zanolimumab. In words: cell-based or functional assay.
The target of experiment [10] is T4, antibodies containing VH4-34 …. In words: cell-based or functional assay.
Experiment [11] addresses T1, 3A6. The experiment can be described thus: ELISA, human IgG1 antigen captured on anti-human IgG Fc. (In general: ELISA stands for enzyme-linked immunosorbent assay.)
Experimental: (§2) The binding affinity of each humanized antibody for 3A6 antibody (containing VH4-34 antigen), 3A6-FR1 (VH4-34 FR1 mutant) and VSTB112 (negative control protein) was evaluated.
(§3) Plates were coated with 1 ug/ml of anti-human IgG Fc overnight at 4° C. Plates were washed thrice with PBS/0.05% Tween (PBST) before blocking with 5% BSA for 1 h at room temp (RT). Plates were then washed again before addition of 1 μg/ml of 3A6 (VH4-34 antigen), 3A6-FR1 (VH4-34 FR1 mutant) or VSTB112 (negative control protein) human IgG1 proteins. Plates were washed thrice. […] After washing the plates, anti-mouse IgG Fc/HRP diluted 1:5000 in 1% BSA was added and incubated for 1 h at RT. Plates were washed before detection using 1-step ELISA substrate.
For experiment [12], the target named is T3, 3A6 mutant FR1. The experiment is described as above.
Experimental: as §2, §3
For experiment [13], the target named is tabalumab. The experiment can be described thus: flow cytometry (geomean MFI), CHO cells overexpressing the surface antibody.
Experiment [14] deals with T1, 3A6. The experiment is described as above.
The target of experiment [15] is T2, zanolimumab. The experiment is described as above.
Experiment [16] deals with T4, antibodies containing VH4-34 …. In words: flow cytometry, EC50 of MFI, OCI-Ly3 cells endogenously expressing VH4-34.
Experimental: (§4) Binding was assessed by FACS. Briefly, cells were assayed in PBS with 0.5% BSA and 2 mM EDTA. Live dead staining was performed with a live dead cell dye for 15 minutes at 4° C. […] Following this, cells were incubated with a secondary PE goat anti-mouse IgG (1:300) for 30 mins at 4° C. and PE readout was measured.
The target is the same in experiment [17]. In words: flow cytometry, EC50 of % parent, OCI-Ly3 cells endogenously expressing VH4-34.
Experimental: as §4
Experiment [18] concerns the target T3, 3A6 mutant FR1. The experiment can be described thus: flow cytometry, % parent (FITC), CHO cells expressing 3A6 mutant FR1.
Experimental: (§5) For FACS evaluation, cells were assayed in PBS with 0.5% BSA and 2 mM EDTA. […] Cells were incubated with a secondary anti-mouse FITC antibody for 20 mins at 4° C. FITC readout was measured by FACS.
The target in experiment [19] is T6, Tabalumab mutant FR1. The experiment can be described thus: flow cytometry, % parent (FITC), CHO cells expressing tabalumab mutant FR1.
Experimental: as §5
Experiment [20] concerns the target T5, Zanolimumab mutant FR1. In words: flow cytometry, % parent (FITC), CHO cells expressing zanolimumab mutant FR1.
Experimental: as §5
Experiment [21] has as its target T1, 3A6. The experiment can be described thus: flow cytometry, EC50 of % parent (FITC), CHO cells overexpressing surface 3A6. This is another data set of the same source.
Experimental: as §5
In experiment [22] the target is tabalumab. In words: flow cytometry, EC50 of % parent (FITC), CHO cells overexpressing surface tabalumab (Taba).
Experimental: as §5
Experiment [23] deals with T2, zanolimumab. The experiment can be described thus: flow cytometry, EC50 of % parent (FITC), CHO cells overexpressing surface zanolimumab (Zano).
Experimental: as §5

T1 sequence (VH, as listed by the source, chain 1 of 2): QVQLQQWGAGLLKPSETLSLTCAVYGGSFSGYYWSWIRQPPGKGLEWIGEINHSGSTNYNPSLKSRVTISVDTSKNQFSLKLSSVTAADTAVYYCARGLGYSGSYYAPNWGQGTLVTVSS

B1: D011-6040 (antibody, human IgG1, kappa, V domains shown)
VH: EVQLQQSGAEFVRSGASVKLSCTASGFNIKDYYMHWVKQRPEQGLDWIGWIDPENGDADYDPKFQGKATMTADTSSNTAYLHLSSLTSEDAAVYYCNACHYYGYEDAMDYWGQGTSVTVSS
VL: DIQMTQSPSSLSASLGERVSLTCRASQEISGYLSWLQQKPDGTIKRLIYAASTLDSGVPKRFSGSRSGSDYSLTISSLESEDFADYYCLQYAGYPRTFGGGTRLEIKR
notes: also called [3]; D011-6040.IgG2a
As to B1, the EC50 turned out to be 0.00895 nM in [1]; 0.00587 nM in experiment [2]; 0.0043 nM in experiment [3]; 4.8 nM in experiment [4]; 0.661 nM in [5]; 0.821 nM in experiment [6]. The EC50 in [7] came out at 3.93 nM.

B2: D011-7016.hIgG1 (antibody)
heavy: not shown
light: DIVMTQSPATLSVTPGDSVSLSCRANQSIDNNLHWYQQRSHESPRLLINYASQSISGIPSRFSGSGSGTDFTLSISSVETEDFGMYFCQQSYGWPYTFGGGTKLEIKRTVAAPSVFIFPPSDEQLKSGTASVVCLLNNFYPREAKVQWKVDNALQSGNSQESVTEQDSKDSTYSLSSTLTLSKADYEKHKVYACEVTHQGLSSPVTKSFNRGEC
As for B2, in [8], the “EC50 of ADCC reporter luminescence (RLU), Jurkat Lucia NFAT-CD16 effector cells with tabalumab-expressing CHO target cells” value was determined as 1.02 nM. In addition, in experiment [9], the “EC50 of ADCC reporter luminescence (RLU), Jurkat Lucia NFAT-CD16 effector cells with zanolimumab-expressing CHO target cells” value was determined as 1.09 nM. In experiment [10], the “EC50 of ADCP (% CFSE of CD14+ cells), M0 macrophages with CFSE-labelled OCI-Ly3 target cells” value was 0.0615 nM.

B3: D011-7016-LD2 H0/L0 IgG2a (antibody, V domains shown)
VH: QVQLQESGPGLVKPSETLSLTCTVSGDAITSGYWNWIRQPPGKGLEYMGYISYSGSAHYNPSLKSRITISRDTSKNQYSLKLSSVTAADTAVYYCASYSFAYWGQGTLVTVSS
VL: EIVMTQSPDFQSVTPKEKVTITCRASQSIDNQLHWYQQKPDQSPKLLINYASQSISGVPSRFSGSGSGTDFTLTISSLEAEDAATYYCQQSYGWPYTFGQGTKLEIKR
For the molecule B3, the EC50 in experiment [11] turned out to be 0.0369 nM; in experiment [13], 0.376 nM; in experiment [14], 0.605 nM; in experiment [15], 0.453 nM; in experiment [16], 0.271 nM; in experiment [17] it was 0.00384 nM. Further, in experiment [12], the binding result is “no binding (tested: 1 µg/ml (highest concentration))”.

B4: D011-7016-LD2 H5/L1 IgG2a (antibody, V domains shown)
VH: QVQLQESGPGLVKPSQTLSLTCTVSWDAITSGYWNWVRQHPGNKLEYMGYISYSGSAHYNPSLKSRITISRDTSKNQYSLKLSSVTAADTAVYYCASYSFAYWGQGTLVTVSS
VL: DIVMTQSPPSLSVTPGEPASLSCRASQSIDNQLHWYLQKPGQSPQLLINYASQSISGVTDRFSGSGSGTDFTLKISRVEAEDVGVYFCQQSYGWPYTFGGGTKVEIKR
Take B4: the EC50 was determined as 0.0295 nM in experiment [11]; 0.313 nM in [13]; 0.59 nM in [14]; 0.645 nM in [15]; 0.308 nM in [16]; 0.0047 nM in experiment [17]. Further, the binding result in [12] was “no binding (tested: 1 µg/ml (highest concentration))”.

B5: D011-7016-LD2 H5/L2 IgG2a (antibody, V domains shown)
VH: QVQLQESGPGLVKPSQTLSLTCTVSWDAITSGYWNWVRQHPGNKLEYMGYISYSGSAHYNPSLKSRITISRDTSKNQYSLKLSSVTAADTAVYYCASYSFAYWGQGTLVTVSS
VL: DIVMTQSPPSLSVTPGESASISCRASQSIDNQLHWYLQKPGQSPQLLINYASQSISGVTDRFSGSGSGTDFTLKISRVEAEDVGMYFCQQSYGWPYTFGGGTKVEIKR
For the molecule B5, the EC50 in [11] was found to be 0.0432 nM; in [13], 0.284 nM; in experiment [14], 0.59 nM; in experiment [15] it was 0.65 nM; in experiment [16] it was 0.281 nM; in [17], 0.00438 nM. In experiment [12], the binding result is recorded as “no binding (tested: 1 µg/ml (highest concentration))”.

B6: D011-7016-LD2 H4/L2 IgG2a (antibody, V domains shown)
VH: QVQLQESGPGLVKPSETLSLTCTVSWDAITSGYWNWVRQPPGNKLEYMGYISYSGSAHYNPSLKSRITISRDTSKNQYSLKLSSVTAADTAVYYCASYSFAYWGQGTLVTVSS
VL: DIVMTQSPPSLSVTPGESASISCRASQSIDNQLHWYLQKPGQSPQLLINYASQSISGVTDRFSGSGSGTDFTLKISRVEAEDVGMYFCQQSYGWPYTFGGGTKVEIKR
Take B6: the EC50 in experiment [11] was 0.0532 nM; in experiment [16], 0.33 nM; in experiment [17], 0.00428 nM. For the same molecule, the binding result in experiment [12] was “no binding (tested: 1 µg/ml (highest concentration))”.

B7: D011-7016-LD1.IgG2a (antibody, V domains shown)
VH: EVQLVESGPSLVKPSQTLSLICSVTGDAITSGYWNWVRKFPGNKLEYMGYISYSGSAHYNPSLKSRISITRDTSKNQYYLQLNSMTTEDTATYYCASYSFAYWGQGTLVTVSA
VL: DIVMTQSPATLSVTPGDSVSLSCRAQQSIDNQLHWYQQRSHESPRLLINYASQSISGIPSRFSGSGSGTDFTLSISSVETEDFGMYFCQQSYGWPYTFGGGTKLEIKR
Consider B7, for which the binding result in experiment [18], in experiment [19] and in experiment [20] was “no binding (tested: Log M about -8.1 (about 8e-9 M))” throughout. For the same molecule, the EC50 in [21] was found to be 0.0104 nM; in experiment [22], 0.00863 nM; in [23] it was 0.0105 nM.

B8: D011-7016-LD2.IgG2a (antibody, V domains shown)
VH: EVQLVESGPSLVKPSQTLSLICSVTGDAITSGYWNWVRKFPGNKLEYMGYISYSGSAHYNPSLKSRISITRDTSKNQYYLQLNSMTTEDTATYYCASYSFAYWGQGTLVTVSA
VL: DIVMTQSPATLSVTPGDSVSLSCRASQSIDNQLHWYQQRSHESPRLLINYASQSISGIPSRFSGSGSGTDFTLSISSVETEDFGMYFCQQSYGWPYTFGGGTKLEIKR
notes: also called [8]
With B8, the EC50 in experiment [11] came to 0.0254 nM; in [13], 0.28 nM; in experiment [14], 0.519 nM; in [15], 0.692 nM; in [16], 0.243 nM; in experiment [21], 0.00909 nM. Besides, the EC50 turned out to be 0.00477 nM in experiment [17], 0.00688 nM in [22] and 0.00892 nM in experiment [23]. The binding result in [18], in [19] and in experiment [20] was “no binding (tested: Log M about -8.1 (about 8e-9 M))” throughout.
